Assay [1] relates to anaplastic thyroid cancer cell line FRO. Put plainly: thyroid cancer mouse model, combination with lenvatinib. Format: in vivo, nu/nu mice. The source says: We measured tumor size with a caliper and calculated tumor volume using the following equation: volume=½× a×b2, where a=long tumor diameter and b=short tumor diameter.
For assay [2], the system named is 4T1, a breast cancer cell line. To be noted: 4T1 in C3H mice; FIG. 7.
Protocol: 2×10^6 pieces of 4T1, a breast cancer cell line, were injected into the back of C3H mice, and anticancer drugs were administered to each experimental group from the 5th day when the tumor was formed.
In assay [3] the target is T1, Recombinant human CXCL16 (rhCXCL16) protein (human, UniProt Q9H2A7 30-118, limits assumed).
T1 construct: Bought recombinant protein (976-CX, R&D systems); also called CXCL16 antigen; 976-CX (R&D systems)
T1 sequence: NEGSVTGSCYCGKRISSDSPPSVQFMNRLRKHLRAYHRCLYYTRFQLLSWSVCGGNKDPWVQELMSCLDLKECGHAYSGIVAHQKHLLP
Put plainly: BLI (ForteBio), antibody captured on biosensor, rhCXCL16 in solution. How it is done:
(§1) The binding characteristics of 25 CXCL16 antibodies were analyzed using the bio-light interferometry (ForteBio). All antibodies were diluted in freshly prepared running buffer. Antibodies were immobilized onto the surface of a series of biosensors using the capture methods at 0.3 μg/mL. Recombinant human CXCL16 (rhCXCL16) protein (100 nM) was passed over the surface to generate a binding response for 10 minutes. Binding data for the antibody and antigen interactions were collected at 25° C. on the biosensors. Then, the running buffer was passed for 10 minutes to dissociate them. The association constant (kₐ) and the dissociation constant (kₐ) were observed, and the equilibrium binding constant (KD) was calculated. […] R2: The value indicating how well the fit and experimental data correlate; X²: The measure of error between the experimental data and fitted line.

The target in assay [4] is T1, Recombinant human CXCL16 (rhCXCL16) …. Put plainly: BLI (ForteBio), antibody captured on biosensor, rhCXCL16 in solution, 25 C. How it is done: as §1
For orientation: BLI is a label-free optical method that tracks binding on a fibre tip over time.

The target is the same in assay [5]. The assay is described as above. This is another data set of the same source.
In assay [6] the target is T2, Recombinant mouse CXCL16 antigen (mouse, UniProt Q8BSU2 27-114, limits assumed).
T2 construct: Bought recombinant protein (503-CX, R&D systems); also called 503-CX (R&D systems)
T2 sequence: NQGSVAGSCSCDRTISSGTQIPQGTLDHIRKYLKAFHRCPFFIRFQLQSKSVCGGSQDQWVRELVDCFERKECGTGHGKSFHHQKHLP
As to the kind of experiment: ELISA, recombinant mouse CXCL16 immobilized on the plate, HRP-labeled anti-human IgG detection, OD 450 nm. How it is done:
To evaluate the cross-reactivity with mouse CXCL16 antigen, the same ELISA experiment was performed with recombinant mouse CXCL16 antigen (503-CX, R&D systems). The mouse CXCL16 antigen was immobilized onto 96-well plates by incubation for 2 hours at room temperature. Non-specific binding sites were blocked by incubating with 1% BSA in PBS overnight at 4° C. After coating, the plates were washed with PBS. Humanized CXCL16 antibodies at various concentration (0.00 1˜10 nM) were incubated with the immobilized antigen for 2 hours at room temperature. After binding, the plates were washed, incubated with HRP-labeled anti-human IgG antibody (W4031, Promega, USA) for 0.5 hours, and developed using the substrate solution (DY008B, R&D systems). The binding affinity of humanized antibodies was similar to that of IgG antibody.
On the technique in general: In an ELISA, binding on a coated surface is turned into a signal by an enzyme label.

On to `COc1cc2nccc(Oc3ccc(NC(=O)NC4CC4)c(Cl)c3)c2cc1C(N)=O` [lenvatinib], for which the “therapeutic effect (tumor growth)” value is “therapeutic effect of lenvatinib was lowered” in assay [1] (after phase 1, rate the same as that of the control group) and “therapeutic effect of lenvatinib was maintained” in assay [1] (phase 1 (up to day 22), lenvatinib orally 30 mg/kg/day five times a week).

Take `CC(=O)O[C@H]1C(=O)[C@@]2(C)[C@H]([C@H](OC(=O)c3ccccc3)[C@]3(O)C[C@H](OC(=O)[C@H](O)[C@@H](NC(=O)c4ccccc4)c4ccccc4)C(C)=C1C3(C)C)[C@]1(OC(C)=O)CO[C@@H]1C[C@@H]2O` [Taxol, paclitaxel]: the “therapeutic effect (tumor growth)” value in assay [2] is listed as “did not have a clear therapeutic effect”.

B1: HC1LC3 (antibody, human IgG1, kappa, V domains shown)
VH: QVQLVESGGGVVQPGGSLRLSCAASGFTFSNAVMNWVRQAPGKGLEWVARIRTKPNNYATFYADSVKGRFTFSRDNSKTMLYLQMNSLRAEDTAVYYCTAWTTEGIYWGQGTLVTVSS
VL: DIQMTQSPSSLSASVGDRVTITCKSSQSLLYSGNQKNYLAWYQQKPGQSPKLLIYWASTRQSGVPDRFSGSGSGTDFTLTISSLQAEDFATYYCQQYYDTPWTFGGGTKVEIKR
notes: Humanized variant; human IgG1 / kappa constant domains
For the molecule B1, the binding result in assay [3] is “no binding (tested: 100 nM rhCXCL16)”.

B2: HC1LC4 (antibody, human IgG1, kappa, V domains shown)
VH: QVQLVESGGGVVQPGGSLRLSCAASGFTFSNAVMNWVRQAPGKGLEWVARIRTKPNNYATFYADSVKGRFTFSRDNSKTMLYLQMNSLRAEDTAVYYCTAWTTEGIYWGQGTLVTVSS
VL: DIQMTQSPSSLSASVGDRVTITCKSSQSLLYSGNQKNYLAWYQQKPGQSPKLLIYWASTRQSGVPSRFSGSGSGTDFTLTISSLQPEDLAIYYCQQYYDTPWTFGGGTKLELKR
notes: as for B1
Consider B2, for which, in assay [3], the binding result is given as “no binding (tested: 100 nM rhCXCL16)”.

B3: Chimeric antibody HC0LC0 (antibody, V domains shown)
VH: AVQLVESGGGLVQPKESLKISCAASGFTFSNAVMNWVRQAPGKGLEWVARIRTKPNNYATFYADSVKGRFTFSRDDSKSMVYLQMDNLKTEDTAMYYCTAWTTEGIYWGQGTLVTVSS
VL: DIVMTQSPSSLAVSAGETVTINCKSSQSLLYSGNQKNYLAWYQQKPGQSPKLLIYWASTRQSGVPDRFIGSGSGTDFTLTISSVQAEDLAIYYCQQYYDTPWTFGGGTKLELKR
notes: also called CLS-A1HC0LC0; variant antibody
As usually defined, the Kd is a measure of binding affinity in units of concentration. The term koff denotes the rate constant with which the complex falls apart. B3: in assay [4], the Kd is under 0.001 nM and the koff is under 1e-07 s⁻¹. In assay [5], the “Res@3.7 nM” value was 0.13. Also, in assay [6], the binding result is reported as “no binding (tested: 1500 ng/mL)”.

B4: HC2LC2 (antibody, human IgG1, kappa, V domains shown)
VH: AVQLVESGGGLVQPGGSLKISCAASGFTFSNAVMNWVRQASGKGLEWVGRIRTKPNNYATFYADSVKGRFTISRDDSKNTAYLQMNSLKTEDTAMYYCTAWTTEGIYWGQGTLVTVSS
VL: DIVMTQSPSSLAVSLGETATINCKSSQSLLYSGNQKNYLAWYQQKPGQPPKLLIYWASTRQSGVPDRFTGSGAGTDFTLTISSVQAEDLAIYYCQQYYDTPWTFGGGTKVEIKR
notes: as for B1
Take B4: in assay [3], the binding result is on record as “no binding (tested: 100 nM rhCXCL16)”.

B5: HC2LC3 (antibody, human IgG1, kappa, V domains shown)
VH: AVQLVESGGGLVQPGGSLKISCAASGFTFSNAVMNWVRQASGKGLEWVGRIRTKPNNYATFYADSVKGRFTISRDDSKNTAYLQMNSLKTEDTAMYYCTAWTTEGIYWGQGTLVTVSS
VL: DIQMTQSPSSLSASVGDRVTITCKSSQSLLYSGNQKNYLAWYQQKPGQSPKLLIYWASTRQSGVPDRFSGSGSGTDFTLTISSLQAEDFATYYCQQYYDTPWTFGGGTKVEIKR
notes: as for B1
As for B5, the binding result in assay [3] is listed as “no binding (tested: 100 nM rhCXCL16)”.

B6: HC1LC2 (antibody, human IgG1, kappa, V domains shown)
VH: QVQLVESGGGVVQPGGSLRLSCAASGFTFSNAVMNWVRQAPGKGLEWVARIRTKPNNYATFYADSVKGRFTFSRDNSKTMLYLQMNSLRAEDTAVYYCTAWTTEGIYWGQGTLVTVSS
VL: DIVMTQSPSSLAVSLGETATINCKSSQSLLYSGNQKNYLAWYQQKPGQPPKLLIYWASTRQSGVPDRFTGSGAGTDFTLTISSVQAEDLAIYYCQQYYDTPWTFGGGTKVEIKR
notes: as for B1
In the case of B6, the binding result in assay [3] is “no binding (tested: 100 nM rhCXCL16)”.

B7: HC5LC5 (antibody, human IgG1, kappa, V domains shown)
VH: EVQLVESGGGLVQPGGSLKLSCAASGFTFSNAVMNWVRQASGKGLEWVARIRTKPNNYATFYADSVKGRFTFSRDDSKNTAYLQMNSLKTEDTAMYYCTAWTTEGIYWGQGTLVTVSS
VL: DIVMTQSPSSLAVSAGERATINCKSSQSLLYSGNQKNYLAWYQQKPGQSPKLLIYWASTRQSGVPDRFIGSGSGTDFTLTISSLQAEDVAIYYCQQYYDTPWTFGGGTKLELKR
notes: Humanized; human IgG1 / kappa constant domains; also called HCSLCS; humanized CXCL16 antibody HC5LC5
As usually defined, the kon is the second-order rate constant of association. Turning to B7, in assay [4], the Kd is under 0.001 nM, the off-rate (koff) was under 1e-07 s⁻¹ and the kon turned out to be 18200 M⁻¹ s⁻¹. Further, the “Res@3.7 nM” value in assay [5] came out at 0.231. Further, the binding result in assay [6] is “no binding (tested: 1500 ng/mL)”.

B8: HC5LC1 (antibody, human IgG1, kappa, V domains shown)
VH: EVQLVESGGGLVQPGGSLKLSCAASGFTFSNAVMNWVRQASGKGLEWVARIRTKPNNYATFYADSVKGRFTFSRDDSKNTAYLQMNSLKTEDTAMYYCTAWTTEGIYWGQGTLVTVSS
VL: DIVMTQSPDSLAVSAGETVTINCKSSQSLLYSGNQKNYLAWYQQKPGQSPKLLIYWASTRQSGVPDRFSGSGSGTDFTLTISSVQAEDVAVYYCQQYYDTPWTFGGGTKVEIKR
notes: Humanized; human IgG1 / kappa constant domains; also called HCSLC1; humanized CXCL16 antibody HC5LC1
Regarding B8, in assay [4], the Kd came out at 3.26 nM, the off-rate (koff) stood at 5.97e-05 s⁻¹ and the on-rate constant (kon) worked out at 18300 M⁻¹ s⁻¹. For the same molecule, in assay [5], the “Res@3.7 nM” value was 0.08.

B9: HC2LC4 (antibody, human IgG1, kappa, V domains shown)
VH: AVQLVESGGGLVQPGGSLKISCAASGFTFSNAVMNWVRQASGKGLEWVGRIRTKPNNYATFYADSVKGRFTISRDDSKNTAYLQMNSLKTEDTAMYYCTAWTTEGIYWGQGTLVTVSS
VL: DIQMTQSPSSLSASVGDRVTITCKSSQSLLYSGNQKNYLAWYQQKPGQSPKLLIYWASTRQSGVPSRFSGSGSGTDFTLTISSLQPEDLAIYYCQQYYDTPWTFGGGTKLELKR
notes: as for B1
For B9, the binding result in assay [3] is reported as “no binding (tested: 100 nM rhCXCL16)”.

B10: HC5LC2 (antibody, human IgG1, kappa, V domains shown)
VH: EVQLVESGGGLVQPGGSLKLSCAASGFTFSNAVMNWVRQASGKGLEWVARIRTKPNNYATFYADSVKGRFTFSRDDSKNTAYLQMNSLKTEDTAMYYCTAWTTEGIYWGQGTLVTVSS
VL: DIVMTQSPSSLAVSLGETATINCKSSQSLLYSGNQKNYLAWYQQKPGQPPKLLIYWASTRQSGVPDRFTGSGAGTDFTLTISSVQAEDLAIYYCQQYYDTPWTFGGGTKVEIKR
notes: Humanized; human IgG1 / kappa constant domains; also called HCSLC2; humanized CXCL16 antibody HC5LC2
In the case of B10, in assay [4], the Kd amounted to 2.5 nM, the koff is 6.07e-05 s⁻¹ and the kon was 24300 M⁻¹ s⁻¹. Further, the “Res@3.7 nM” value in assay [5] was found to be 0.152. Further, the binding result in assay [6] is recorded as “no binding (tested: 1500 ng/mL)”.

B11: HC5LC3 (antibody, human IgG1, kappa, V domains shown)
VH: EVQLVESGGGLVQPGGSLKLSCAASGFTFSNAVMNWVRQASGKGLEWVARIRTKPNNYATFYADSVKGRFTFSRDDSKNTAYLQMNSLKTEDTAMYYCTAWTTEGIYWGQGTLVTVSS
VL: DIQMTQSPSSLSASVGDRVTITCKSSQSLLYSGNQKNYLAWYQQKPGQSPKLLIYWASTRQSGVPDRFSGSGSGTDFTLTISSLQAEDFATYYCQQYYDTPWTFGGGTKVEIKR
notes: Humanized; human IgG1 / kappa constant domains; also called HCSLC3; humanized CXCL16 antibody HC5LC3
In the case of B11, in assay [4], the Kd stood at 1.44 nM and the koff amounted to 0.000635 s⁻¹. Further, the “Res@3.7 nM” value in assay [5] is 0.078.

B12: HC4LC1 (antibody, human IgG1, kappa, V domains shown)
VH: EVQLVESGGGLVKPGGSLRLSCAASGFTFSNAVMNWVRQAPGKGLEWVARIRTKPNNYATFYADSVKGRFTFSRDDSKNTLYLQMNSLKTEDTAVYYCTAWTTEGIYWGQGTTVTVSS
VL: DIVMTQSPDSLAVSAGETVTINCKSSQSLLYSGNQKNYLAWYQQKPGQSPKLLIYWASTRQSGVPDRFSGSGSGTDFTLTISSVQAEDVAVYYCQQYYDTPWTFGGGTKVEIKR
notes: Humanized; human IgG1 / kappa constant domains; also called humanized CXCL16 antibody HC4LC1
In the case of B12, in assay [4], the equilibrium dissociation constant (Kd) came out at 1.09 nM, the koff is 1.9e-05 s⁻¹ and the kon is 17400 M⁻¹ s⁻¹. The “Res@3.7 nM” value in assay [5] was 0.113.

For the origin of these results see patent US20240327509A1, “HUMAN CXCLI6 ANTIBODIES AND THE USE THEREOF” (CELLUS,INC., priority 2021, published 2024).
